In US20240350588A1 (SUNSHINE LAKE PHARMA, published 2024):
Substitutions are numbered along the chain they refer to.

T1: human GFRAL (UniProtKB-Q6UXVO) (human, UniProt Q6UXV0 19-394)
T1 sequence (looked up): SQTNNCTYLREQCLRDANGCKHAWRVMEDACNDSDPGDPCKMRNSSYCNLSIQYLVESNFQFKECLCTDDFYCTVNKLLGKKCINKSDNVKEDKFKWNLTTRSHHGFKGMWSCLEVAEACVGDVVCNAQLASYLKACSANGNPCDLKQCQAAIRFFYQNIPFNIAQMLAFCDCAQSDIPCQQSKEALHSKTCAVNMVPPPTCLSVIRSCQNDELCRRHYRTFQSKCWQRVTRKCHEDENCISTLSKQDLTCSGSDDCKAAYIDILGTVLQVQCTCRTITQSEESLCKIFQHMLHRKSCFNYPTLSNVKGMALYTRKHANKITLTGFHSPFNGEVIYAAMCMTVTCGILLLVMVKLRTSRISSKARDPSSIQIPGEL

B1: Fc-GDF15 fusion protein M39 (Fc fusion)
chain: APEAAGGPSVFLFPPKPKDTLMISRTPEVTCVVVDVSQEDPEVQFNWYVDGVEVHNAKTKPREEQFNSTYRVVSVLTVLHQDWLNGKEYKCKVSNKGLPSSIEKTISKAKGQPREPQVYTLPPSQEEMTKNQVSLTCLVKGFYPSDIAVEWESNGQPENNYKTTPPVLDSDGSFFLYSRLTVDKSRWQEGNVFSCSVMHEALHNHYTQQSLSLSLGGGGGSGGGGSAPAPAPAPAPAPAPAPAPAPGGGGSGGGGSGDHCPLGPGRCCRLHTVRASLEDLGWADWVLSPREVQVTMCIGACPSQFRAANMHAQIKTSLHRLKPDTVPAPCCVPASYNPMVLIQKTDTGVSLQTYDDLLAKDCHCI
B2: Fc-GDF15 fusion protein M3 (Fc fusion)
chain: B1 chain with Q209E
B3: Fc-GDF15 fusion protein M50 (Fc fusion)
chain: B1 chain with E126Q
B4: Fc-GDF15 fusion protein M37 (Fc fusion)
chain: APEAAGGPSVFLFPPKPKDTLMISRTPEVTCVVVDVSQEDPEVQFNWYVDGVEVHNAKTKPREEQFNSTYRVVSVLTVLHQDWLNGKEYKCKVSNKGLPSSIEKTISKAKGQPREPQVYTLPPSQEEMTKNQVSLTCLVKGFYPSDIAVEWESNGQPENNYKTTPPVLDSDGSFFLYSRLTVDKSRWQEGNVFSCSVMHEALHNHYTQESLSLSLGGGGGSGGGGSAPAPAPAPAPAPAPAPAPAPGGGGSGGGGSCRLHTVRASLEDLGWADWVLSPREVQVTMCIGACPSQFRAANMHAQIKTSLHRLKPDTVPAPCCVPASYNPMVLIQKTDTGVSLQTYDDLLAKDCHCI
B5: Fc-GDF15 fusion protein M29 (Fc fusion)
chain: APEAAGGPSVFLFPPKPKDTLMISRTPEVTCVVVDVSQEDPEVQFNWYVDGVEVHNAKTKPREEQFNSTYRVVSVLTVLHQDWLNGKEYKCKVSNKGLPSSIEKTISKAKGQPREPQVYTLPPSQEEMTKNQVSLTCLVKGFYPSDIAVEWESNGQPENNYKTTPPVLDSDGSFFLYSRLTVDKSRWQEGNVFSCSVMHEALHNHYTQESLSLSLGGGGGSGGGGSAPAPAPAPAPAPAPAPAPAPGGGGSGGGGSDHCPLGPGRCCRLHTVRASLEDLGWADWVLSPREVQVTMCIGDCPSQFRAANMHAQIKTSLHRLKPDTVPAPCCVPASYNPMVLIQKTDTGVSLQTYDDLLAKDCHCI
B6: Fc-GDF15 fusion protein M7 (Fc fusion)
chain: B5 chain with E209A, D299A
B7: Fc-GDF15 fusion protein M51 (Fc fusion)
chain: B5 chain with E209N, D299A
B8: Fc-GDF15 fusion protein M30 (Fc fusion)
chain: B5 chain with D299A, A306S
B9: Fc-GDF15 fusion protein M31 (Fc fusion)
chain: B5 chain with D299A, A307E
B10: Fc-GDF15 fusion protein M8 (Fc fusion)
chain: B5 chain with E126K, E209K, D299A
B11: Fc-GDF15 fusion protein M5 (Fc fusion)
chain: B5 chain with E209D, D299A
B12: Fc-GDF15 fusion protein M32 (Fc fusion)
chain: B5 chain with D299A, M309T
B13: Fc-GDF15 fusion protein M34 (Fc fusion)
chain: B5 chain with D299A, A333S
B14: Fc-GDF15 fusion protein M36 (Fc fusion)
chain: B5 chain with D299A, K359Q
B15: Fc-GDF15 fusion protein M35 (Fc fusion)
chain: B5 chain with D299A, T346E
B16: Fc-GDF15 fusion protein M33 (Fc fusion)
chain: B5 chain with D299A, R319Q
B17: Fc-GDF15 fusion protein M6 (Fc fusion)
chain: B5 chain with E209Q, D299A

molecular target: T1, human GFRAL (UniProtKB-Q6UXVO); experiment: cell-based or functional assay

Row | Relative activity ratio (native GDF15 EC50: Fc-GDF15 construct EC50), ERK1/2 phosphorylation HTRF in HEK293T cells expressing human GFRAL and RET [ratio] | Binder
1 | 2.62 | B1
2 | 4.53 | B2
3 | 1.5 | B3
4 | 3.17 | B4
5 | 1.26 | B5
6 | 3.16 | B6
7 | 3.16 | B7
8 | 1.51 | B8
9 | 0.87 | B9
10 | 1.69 | B10
11 | 2.47 | B11
12 | 1.26 | B12
13 | 0.9 | B13
14 | 0.82 | B14
15 | 0.19 | B15
16 | 0.84 | B16
17 | 2.71 | B17
